From patent EP4768505A1 (Shenzhen Genocury Biotech Co., Ltd, dated 2026)
Changes are numbered by the printed parent chain.

B1: anti-CD79B single-domain antibody JYB4 (VHH)
VHH: DVQLQESGGGLVQPGGSLRLSCAASGFAFSLYAMSWARQAPGKGLEWVSDIYGDDDSRRNYADSVKGRFTISRDNAKNTVYLQMTNLQPEDTALYYCGKGRDGTRWSAREYEYRGQGTQVTVSS
notes: Alpaca VHH from a phage library; not shown: His-tag protein at the C-terminal end
B2: anti-CD79B single-domain antibody JYB14 (VHH)
VHH: DVQLQESGGGLVQPGGSLSLTCTASISSLTIWVRAWHRQAPGKQRELVAAINSDGQTMYADSVKGRFTISRDNAKTTVSLQMDSLKPEDTAVYYCNVVTPNGQQYWGQGTQVTVSS
notes: Alpaca VHH from a phage library; ELISA detected with an anti-myc antibody; a myc tag is not described; not shown: His-tag protein at the C-terminal end
B3: anti-CD79B single-domain antibody JYB11 (VHH)
VHH: B2 VHH with T21S, T23A, I26M, L29P, T30S, I31L, T77L, N101R
notes: as for B2
B4: anti-CD79B single-domain antibody JYB8 (VHH, not shown: small tags and cut ends)
VHH: B2 VHH with V12M, T30S, N73S, N101K
B5: anti-CD79B single-domain antibody JYB10 (VHH)
VHH: B2 VHH with T21S, T23A, L29S, T30S, S53N, D83N, N101K, Q103H
notes: as for B2

What follows are binders tested against T1, Mouse CD79B antigen (mouse, UniProt P15530 26-158, limits assumed) (assay: ELISA on coated antigen, anti-myc detection).
T1 sequence (looked up): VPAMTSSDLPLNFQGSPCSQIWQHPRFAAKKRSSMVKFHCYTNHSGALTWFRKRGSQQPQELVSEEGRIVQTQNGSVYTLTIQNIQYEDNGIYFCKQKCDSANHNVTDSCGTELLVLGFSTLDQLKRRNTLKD

Row | Binder | binding result
1 | B1 | no binding (tested: 20ug)
2 | B2 | no binding (tested: 20ug)
3 | B3 | no binding (tested: 20ug)

These binders were tested against Human CD79A+CD79B antigen (human) (UniProt P11912) (assay: ELISA on coated antigen, anti-myc detection; 2ng antibody added).

Row | Binder | OD450 nm [OD450]
4 | B1 | 0.063
5 | B2 | 0.0603
6 | B4 | 0.0544
7 | B5 | 0.0596
8 | B3 | 0.0567

What follows are binders tested against Human CD79B Protein, His Tag (MALS verified), Cat. No. #CDB-H52H3-1mg, ACRO (human) (UniProt P40259) in the same assay as above.

Row | Binder | OD450 nm [OD450]
9 | B1 | 0.0519
10 | B2 | 0.0507
11 | B4 | 0.06
12 | B5 | 0.0517
13 | B3 | 0.0528

What follows are binders tested against T2, Mouse CD79A+CD79B antigen (mouse) (UniProt P11911) in the same assay as above.
T2 sequence (looked up) 1: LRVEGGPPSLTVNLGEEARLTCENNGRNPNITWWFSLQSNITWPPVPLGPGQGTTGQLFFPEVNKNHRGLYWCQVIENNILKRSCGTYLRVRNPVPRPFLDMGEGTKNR
T2 sequence (looked up) 2: T1 sequence (looked up)

Row | Binder | OD450 nm [OD450]
14 | B1 | 0.0574
15 | B2 | 0.0584
16 | B4 | 0.0543
17 | B5 | 0.0584
18 | B3 | 0.0582

Each binder was assayed against T1, Mouse CD79B antigen in the same assay as above.

Row | Binder | OD450 nm [OD450]
19 | B4 | 0.0512
20 | B5 | 0.0512

These binders were tested against Human CD79A+CD79B antigen (human) (UniProt P11912) (assay: ELISA on coated antigen, anti-myc detection; 2ug antibody added).

Row | Binder | OD450 nm [OD450]
21 | B1 | 0.585
22 | B2 | 0.634
23 | B4 | 0.802
24 | B5 | 0.554
25 | B3 | 0.519

The binders below were run against Human CD79B Protein, His Tag (MALS verified), Cat. No. #CDB-H52H3-1mg, ACRO (human) (UniProt P40259) in the same assay as above.

Row | Binder | OD450 nm [OD450]
26 | B1 | 0.485
27 | B2 | 0.346
28 | B4 | 0.506
29 | B5 | 0.221
30 | B3 | 0.303

The binders below were run against T2, Mouse CD79A+CD79B antigen (mouse) in the same assay as above.

Row | Binder | OD450 nm [OD450]
31 | B1 | 0.0549
32 | B2 | 0.0726
33 | B4 | 0.206
34 | B5 | 0.0788
35 | B3 | 0.0651

Each binder was assayed against T1, Mouse CD79B antigen in the same assay as above.

Row | Binder | OD450 nm [OD450]
36 | B4 | 0.178
37 | B5 | 0.0588

Each binder was assayed against Human CD79A+CD79B antigen (human) (UniProt P11912) (assay: ELISA on coated antigen, anti-myc detection; 20ug antibody added).

Row | Binder | OD450 nm [OD450]
38 | B1 | 0.658
39 | B2 | 0.855
40 | B4 | 0.922
41 | B5 | 0.816
42 | B3 | 0.612

What follows are binders tested against Human CD79B Protein, His Tag (MALS verified), Cat. No. #CDB-H52H3-1mg, ACRO (human) (UniProt P40259) in the same assay as above.

Row | Binder | OD450 nm [OD450]
43 | B1 | 0.552
44 | B2 | 0.495
45 | B4 | 0.596
46 | B5 | 0.285
47 | B3 | 0.379

What follows are binders tested against T2, Mouse CD79A+CD79B antigen (mouse) in the same assay as above.

Row | Binder | OD450 nm [OD450]
48 | B1 | 0.049
49 | B2 | 0.117
50 | B4 | 0.356
51 | B5 | 0.126
52 | B3 | 0.0981

These binders were tested against T1, Mouse CD79B antigen in the same assay as above.

Row | Binder | OD450 nm [OD450]
53 | B4 | 0.229
54 | B5 | 0.0982

What follows are binders tested against Human CD79A+CD79B antigen (human) (UniProt P11912) (assay: ELISA on coated antigen, anti-myc detection; 20ng antibody added).

Row | Binder | OD450 nm [OD450]
55 | B1 | 0.172
56 | B2 | 0.116
57 | B4 | 0.115
58 | B5 | 0.0687
59 | B3 | 0.0778

What follows are binders tested against Human CD79B Protein, His Tag (MALS verified), Cat. No. #CDB-H52H3-1mg, ACRO (human) (UniProt P40259) in the same assay as above.

Row | Binder | OD450 nm [OD450]
60 | B1 | 0.15
61 | B2 | 0.139
62 | B4 | 0.145
63 | B5 | 0.0739
64 | B3 | 0.0947

The binders below were run against T2, Mouse CD79A+CD79B antigen (mouse) in the same assay as above.

Row | Binder | OD450 nm [OD450]
65 | B1 | 0.0572
66 | B2 | 0.0578
67 | B4 | 0.0553
68 | B5 | 0.0609
69 | B3 | 0.0575

What follows are binders tested against T1, Mouse CD79B antigen in the same assay as above.

Row | Binder | OD450 nm [OD450]
70 | B4 | 0.0551
71 | B5 | 0.0517

These binders were tested against Human CD79A+CD79B antigen (human) (UniProt P11912) (assay: ELISA on coated antigen, anti-myc detection; 200ng antibody added).

Row | Binder | OD450 nm [OD450]
72 | B1 | 0.421
73 | B2 | 0.421
74 | B4 | 1.43
75 | B5 | 0.224
76 | B3 | 0.271

What follows are binders tested against Human CD79B Protein, His Tag (MALS verified), Cat. No. #CDB-H52H3-1mg, ACRO (human) (UniProt P40259) in the same assay as above.

Row | Binder | OD450 nm [OD450]
77 | B1 | 0.375
78 | B2 | 0.321
79 | B4 | 0.308
80 | B5 | 0.144
81 | B3 | 0.177

What follows are binders tested against T2, Mouse CD79A+CD79B antigen (mouse) in the same assay as above.

Row | Binder | OD450 nm [OD450]
82 | B1 | 0.0567
83 | B2 | 0.0597
84 | B4 | 0.068
85 | B5 | 0.0601
86 | B3 | 0.0589

What follows are binders tested against T1, Mouse CD79B antigen in the same assay as above.

Row | Binder | OD450 nm [OD450]
87 | B4 | 0.0622
88 | B5 | 0.0527

The binders below were run against Human CD79A+CD79B antigen (human) (UniProt P11912) (assay: ELISA on coated antigen, anti-myc detection; 200pg antibody added).

Row | Binder | OD450 nm [OD450]
89 | B1 | 0.0577
90 | B2 | 0.0561
91 | B4 | 0.0521
92 | B5 | 0.0573

What follows are binders tested against Human CD79B Protein, His Tag (MALS verified), Cat. No. #CDB-H52H3-1mg, ACRO (human) (UniProt P40259) in the same assay as above.

Row | Binder | OD450 nm [OD450]
93 | B1 | 0.0521
94 | B2 | 0.0501
95 | B4 | 0.0418
96 | B5 | 0.0496

What follows are binders tested against T2, Mouse CD79A+CD79B antigen (mouse) in the same assay as above.

Row | Binder | OD450 nm [OD450]
97 | B1 | 0.0601
98 | B2 | 0.0609
99 | B4 | 0.0619
100 | B5 | 0.0584

The binders below were run against T1, Mouse CD79B antigen in the same assay as above.

Row | Binder | OD450 nm [OD450]
101 | B4 | 0.0485
102 | B5 | 0.0517

What follows are binders tested against BSA (UniProt P02769) (assay: ELISA on coated BSA control, anti-myc detection; 2ug antibody added).
BSA, sequence (P02769 25-607 limits assumed): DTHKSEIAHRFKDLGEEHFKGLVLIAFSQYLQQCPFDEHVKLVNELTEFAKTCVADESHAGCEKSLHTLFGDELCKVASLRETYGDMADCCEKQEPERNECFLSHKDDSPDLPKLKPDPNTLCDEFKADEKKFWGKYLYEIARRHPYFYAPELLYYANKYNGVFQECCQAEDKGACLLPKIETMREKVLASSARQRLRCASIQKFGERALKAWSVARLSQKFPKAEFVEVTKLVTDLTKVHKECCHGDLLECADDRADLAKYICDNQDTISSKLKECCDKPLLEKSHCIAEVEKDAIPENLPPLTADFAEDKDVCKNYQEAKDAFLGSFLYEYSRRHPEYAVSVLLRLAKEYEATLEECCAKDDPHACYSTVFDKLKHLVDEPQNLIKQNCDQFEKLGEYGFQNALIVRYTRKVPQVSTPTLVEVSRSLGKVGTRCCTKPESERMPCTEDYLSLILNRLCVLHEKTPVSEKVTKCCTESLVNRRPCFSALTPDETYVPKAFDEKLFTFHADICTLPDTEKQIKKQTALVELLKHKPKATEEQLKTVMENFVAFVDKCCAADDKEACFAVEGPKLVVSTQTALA

Row | Binder | OD450 nm [OD450]
103 | B1 | 0.0479
104 | B2 | 0.0506
105 | B4 | 0.0582
106 | B5 | 0.0482
107 | B3 | 0.0483

What follows are binders tested against BSA (UniProt P02769) (assay: ELISA on coated BSA control, anti-myc detection; 2ng antibody added).

Row | Binder | OD450 nm [OD450]
108 | B1 | 0.0479
109 | B2 | 0.0474
110 | B4 | 0.0474
111 | B5 | 0.0486
112 | B3 | 0.0485

What follows are binders tested against BSA (UniProt P02769) (assay: ELISA on coated BSA control, anti-myc detection; 20ng antibody added).

Row | Binder | OD450 nm [OD450]
113 | B1 | 0.0499
114 | B2 | 0.0476
115 | B4 | 0.0554
116 | B5 | 0.0474
117 | B3 | 0.0471

These binders were tested against BSA (UniProt P02769) (assay: ELISA on coated BSA control, anti-myc detection; 20ug antibody added).

Row | Binder | OD450 nm [OD450]
118 | B1 | 0.0488
119 | B2 | 0.0489
120 | B4 | 0.0537
121 | B5 | 0.0493
122 | B3 | 0.0489

What follows are binders tested against BSA (UniProt P02769) (assay: ELISA on coated BSA control, anti-myc detection; 200ng antibody added).

Row | Binder | OD450 nm [OD450]
123 | B1 | 0.049
124 | B2 | 0.0493
125 | B4 | 0.052
126 | B5 | 0.0473
127 | B3 | 0.048

What follows are binders tested against BSA (UniProt P02769) (assay: ELISA on coated BSA control, anti-myc detection; 200pg antibody added).

Row | Binder | OD450 nm [OD450]
128 | B1 | 0.0476
129 | B2 | 0.0489
130 | B4 | 0.0534
131 | B5 | 0.0488

The binders below were run against T3, human CD79B antigen (a full-length protein containing signal peptide, UniProt ID: P40259) on cells (human, UniProt P40259 29-229) (assay: flow cytometry on HEK-293T cells overexpressing CD79B-GFP, 0.1 mg/mL, APC-His tag antibody).
T3 construct: whole, on cells; Used for the flow cytometry on transfected HEK-293T cells; F2A residues left at the C-terminus after cleavage are not described; also called CD79B-GFP molecule; HEK-293T cells overexpressing the CD79B-GFP molecule
T3 sequence (looked up): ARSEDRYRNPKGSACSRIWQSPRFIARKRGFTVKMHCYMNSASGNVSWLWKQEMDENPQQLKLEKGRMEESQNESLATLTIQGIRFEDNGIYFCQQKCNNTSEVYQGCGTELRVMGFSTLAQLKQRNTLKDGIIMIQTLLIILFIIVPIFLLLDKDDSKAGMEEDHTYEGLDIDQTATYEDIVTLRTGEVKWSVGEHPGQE

Row | Binder | binding result
132 | B1 | binds
133 | B2 | binds
134 | B5 | binds
135 | B3 | binds

The binders below were run against Human CD79A+CD79B antigen (human) (UniProt P11912) (assay: ELISA on coated antigen, anti-myc detection; 200µg [sic] antibody added (lowest step of the dilution series)).

Row | Binder | OD450 nm [OD450]
136 | B3 | 0.0556

These binders were tested against Human CD79B Protein, His Tag (MALS verified), Cat. No. #CDB-H52H3-1mg, ACRO (human) (UniProt P40259) in the same assay as above.

Row | Binder | OD450 nm [OD450]
137 | B3 | 0.0516

What follows are binders tested against T2, Mouse CD79A+CD79B antigen (mouse) in the same assay as above.

Row | Binder | OD450 nm [OD450]
138 | B3 | 0.0586

Each binder was assayed against BSA (UniProt P02769) (assay: ELISA on coated BSA control, anti-myc detection; 200µg [sic] antibody added (lowest step of the dilution series)).

Row | Binder | OD450 nm [OD450]
139 | B3 | 0.0469
